Test results: US20190270826A1 (Janssen / Centocor, published 2019)
Where a chain is given by its changes, count along the chain named. Numbers in names are those of the source. Like-named read-outs stand apart in the source and are kept apart here.

What was measured:
[1] = target: T1, human IL1RAP on cells (endogenous) (human, UniProt Q9NPH3 21-570); assay: cell-based or functional assay
T1 sequence (looked up): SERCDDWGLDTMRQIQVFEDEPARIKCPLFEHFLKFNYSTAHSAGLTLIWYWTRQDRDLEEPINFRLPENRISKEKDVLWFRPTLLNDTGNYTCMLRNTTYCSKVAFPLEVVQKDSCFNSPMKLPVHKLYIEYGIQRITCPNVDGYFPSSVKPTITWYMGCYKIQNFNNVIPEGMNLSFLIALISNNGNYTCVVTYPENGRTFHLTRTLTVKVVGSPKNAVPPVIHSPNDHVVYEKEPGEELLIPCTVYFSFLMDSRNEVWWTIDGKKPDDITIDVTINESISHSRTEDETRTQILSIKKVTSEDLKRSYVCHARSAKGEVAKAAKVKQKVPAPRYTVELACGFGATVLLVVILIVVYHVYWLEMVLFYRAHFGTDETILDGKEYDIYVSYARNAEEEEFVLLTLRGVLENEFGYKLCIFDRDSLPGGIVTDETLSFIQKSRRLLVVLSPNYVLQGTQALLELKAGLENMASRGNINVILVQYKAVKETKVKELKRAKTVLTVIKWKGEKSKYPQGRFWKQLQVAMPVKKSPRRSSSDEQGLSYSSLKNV

[2] = target: T2, rat IL1RAP ECD displayed on HEK-293F cells (pDisplay) (rat, UniProt Q63621 21-367); assay: MSD cell binding, HEK-293F Rat clone 1 cells displaying rat IL1RAP ECD
T2 sequence: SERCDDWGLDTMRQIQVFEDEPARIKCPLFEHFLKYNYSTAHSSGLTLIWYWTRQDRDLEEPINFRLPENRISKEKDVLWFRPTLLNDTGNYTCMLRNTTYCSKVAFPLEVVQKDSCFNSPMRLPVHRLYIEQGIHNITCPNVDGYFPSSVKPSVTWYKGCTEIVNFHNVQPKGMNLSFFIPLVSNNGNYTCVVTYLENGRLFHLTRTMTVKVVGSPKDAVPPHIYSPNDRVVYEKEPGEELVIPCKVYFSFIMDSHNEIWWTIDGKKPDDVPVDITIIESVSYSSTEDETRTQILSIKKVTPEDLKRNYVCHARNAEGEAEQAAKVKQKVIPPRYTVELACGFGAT
Procedure: (§1) Cells were immobilized and IL1RAP antibody samples were assayed in triplicate. Briefly, expression supernatants of purified IL1RAP antibodies were normalized to 10 μg/mL. 5000 cells per well were plated into a 384 well plate (MA6000, cat. L21XB, MSD) and allowed to adhere for 2 hr. Cells were then blocked with 20% FBS in PBS (Gibco) for 15 mins. Antibody supernatants were then added and left at RT for 1 hr. Cells were washed 3 times with PBS and a ruthenium labeled secondary antibody (Mesoscale Discovery) was then added at 2 μg/mL and incubated for 1 hour at room temperature. A further washing step was then applied and 35 μL per well of 2×MSD Read buffer T (surfactant free) was then added and incubated for 5-30 minutes for detection. Plates were then read using Sector Imager 2400 (MSD). Data was normalized to controls and graphed using GraphPad Prism Version 5. A positive binder was determined to be a hit with a signal 3× greater than parental cell line background.
(§2) The MSD cell binding assay described in Example 4 was used to assess IL1RAP binding.

[3] = target: T3, mouse IL1RAP ECD displayed on HEK-293F cells (pDisplay) (mouse, UniProt Q61730 21-367); assay: MSD cell binding, HEK-293F Mouse clone 5 cells displaying mouse IL1RAP ECD
T3 sequence: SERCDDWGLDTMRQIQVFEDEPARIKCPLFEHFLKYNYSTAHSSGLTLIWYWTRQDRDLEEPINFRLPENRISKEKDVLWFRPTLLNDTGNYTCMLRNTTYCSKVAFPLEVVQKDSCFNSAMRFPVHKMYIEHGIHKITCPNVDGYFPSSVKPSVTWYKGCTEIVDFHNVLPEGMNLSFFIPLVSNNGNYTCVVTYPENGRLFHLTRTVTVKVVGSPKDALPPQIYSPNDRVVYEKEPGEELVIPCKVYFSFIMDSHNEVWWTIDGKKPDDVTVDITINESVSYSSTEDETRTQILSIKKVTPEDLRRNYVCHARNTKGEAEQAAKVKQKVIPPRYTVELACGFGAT
Procedure: as §1, §2

[4] = target: T4, cyno IL1RAP ECD displayed on HEK-293F cells (pDisplay) (cynomolgus monkey, UniProt P59822 21-367 (rhesus entry)); assay: MSD cell binding, HEK-293F Cyno (clone CB8) cells displaying cyno IL1RAP ECD
T4 sequence: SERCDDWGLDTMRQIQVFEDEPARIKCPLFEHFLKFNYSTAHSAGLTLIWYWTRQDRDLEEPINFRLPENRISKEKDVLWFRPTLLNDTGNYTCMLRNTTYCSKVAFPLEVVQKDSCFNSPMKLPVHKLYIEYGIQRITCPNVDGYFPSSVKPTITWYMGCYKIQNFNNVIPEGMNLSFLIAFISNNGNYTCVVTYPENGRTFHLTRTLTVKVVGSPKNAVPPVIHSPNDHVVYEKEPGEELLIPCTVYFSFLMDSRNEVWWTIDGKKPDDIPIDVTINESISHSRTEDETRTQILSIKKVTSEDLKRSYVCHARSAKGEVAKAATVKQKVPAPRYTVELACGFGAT
Procedure: as §1, §2

[5] = target: T5, human IL1RAP ECD displayed on HEK-293F cells (pDisplay) (human, UniProt Q9NPH3 21-367); assay: MSD cell binding, HEK-293F Human (clone HE2) cells displaying human IL1RAP ECD
T5 construct: also called Human clone HE2 IL1RAP FL-ECD cell line
T5 sequence: T4 sequence with F183L, P273T, T326K
Procedure: as §1, §2

[6] = target: T6, human FcRn (human, UniProt P55899 24-297; P61769 21-119, limits assumed); assay: AlphaScreen competition, human FcRn (n=1); displaced: biotinylated control mAb B21M WT IgG1 (m27); pH 6.0
T6 construct: GST-tagged
From the text: (§3) Measurements were made using an AlphaScreen™ assay (Amplified Luminescent Proximity Homogeneous Assay (ALPHA), PerkinElmer, Wellesley, Mass.), a bead-based luminescent proximity assay. Laser excitation of a donor bead excites oxygen, which if sufficiently close to the acceptor bead generates a cascade of chemiluminescent events, ultimately leading to fluorescence emission at 520-620 nm.

[7] = target: T7, human FcγRI (human, UniProt P12314 16-292, limits assumed); assay: AlphaScreen competition, human FcγRI (n=1); displaced: biotinylated control mAb B21M hIgG1 AlaAla; pH 7.2
T7 construct: GST-tagged, on glutathione acceptor beads; also called FcγRT [sic]
From the text: as §3

[8] = target: T8, recombinant human IL1RAP ECD (human, UniProt Q9NPH3 21-367); assay: SPR, summary
T8 construct: His-tagged; also called hIL1RAP-ECD; rhuIL1RAP
T8 sequence: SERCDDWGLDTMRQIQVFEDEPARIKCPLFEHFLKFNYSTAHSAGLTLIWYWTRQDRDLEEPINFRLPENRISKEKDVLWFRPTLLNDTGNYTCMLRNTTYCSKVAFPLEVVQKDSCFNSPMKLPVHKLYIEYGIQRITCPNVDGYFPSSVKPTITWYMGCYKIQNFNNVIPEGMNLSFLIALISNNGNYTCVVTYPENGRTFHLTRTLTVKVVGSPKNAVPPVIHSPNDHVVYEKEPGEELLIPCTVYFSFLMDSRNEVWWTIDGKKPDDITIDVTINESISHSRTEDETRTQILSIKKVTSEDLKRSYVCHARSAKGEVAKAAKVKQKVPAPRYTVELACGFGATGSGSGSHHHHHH

[9] = target: T8, recombinant human IL1RAP ECD; assay: SPR (ProteOn)
[10] = target: T8, recombinant human IL1RAP ECD; assay: SPR (ProteOn); remark: listed apart in the source
[11] = target: T9, recombinant cyno IL1RAP ECD (cynomolgus monkey, UniProt P59822 21-367 (rhesus entry)); assay: recombinant protein
T9 construct: also called rcynoIL1RAP
T9 sequence: T8 sequence with L183F, T273P, K326T

[12] = target: T4, cyno IL1RAP ECD displayed on HEK-293F …; assay: HEK-293F cells (MSD)
[13] = target: T8, recombinant human IL1RAP ECD; assay: SPR; KD against parent IAPB4

B1: IC3B18 (bispecific antibody, human IgG4 S228P, lambda, F234A L235A)
heavy 1: EVQLVESGGGLVQPGGSLRLSCAASGFTFNTYAMNWVRQAPGKGLEWVARIRSKYNNYATYYAASVKGRFTISRDDSKNSLYLQMNSLKTEDTAVYYCARHGNFGNSYVSWFAYWGQGTLVTVSSASTKGPSVFPLAPCSRSTSESTAALGCLVKDYFPEPVTVSWNSGALTSGVHTFPAVLQSSGLYSLSSVVTVPSSSLGTKTYTCNVDHKPSNTKVDKRVESKYGPPCPPCPAPEAAGGPSVFLFPPKPKDTLMISRTPEVTCVVVDVSQEDPEVQFNWYVDGVEVHNAKTKPREEQFNSTYRVVSVLTVLHQDWLNGKEYKCKVSNKGLPSSIEKTISKAKGQPREPQVYTLPPSQEEMTKNQVSLTCLVKGFYPSDIAVEWESNGQPENNYKTTPPVLDSDGSFLLYSKLTVDKSRWQEGNVFSCSVMHEALHNHYTQKSLSLSLGK
light 1: QTVVTQEPSLTVSPGGTVTLTCRSSTGAVTTSNYANWVQQKPGQAPRGLIGGTNKRAPGTPARFSGSLLGGKAALTLSGVQPEDEAEYYCALWYSNLWVFGGGTKLTVLGQPKAAPSVTLFPPSSEELQANKATLVCLISDFYPGAVTVAWKADSSPVKAGVETTTPSKQSNNKYAASSYLSLTPEQWKSHRSYSCQVTHEGSTVEKTVAPTECS
heavy 2: not shown
light 2: QSALTQPRSVSGSPGHSVTISCTGTSSDVGDYNYVSWYQQRPGKVPKLLIYDVSKRPSGVPDRFSGSKSGNTASLTISGLQAEDEAIYFCASYAGNYNVVFGGGTKLTVLGQPKAAPSVTLFPPSSEELQANKATLVCLISDFYPGAVTVAWKADSSPVKAGVETTTPSKQSNNKYAASSYLSLTPEQWKSHRSYSCQVTHEGSTVEKTVAPTECS
notes: IgG4-PAA, Fab arm exchange; also called IAPB63 x CD3B219; IL1RAP x CD3
[1]
  Average EC50, SKNO-1 cytotoxicity in whole blood, 24 hour: 2.92 nM
  Average EC50, SKNO-1 cytotoxicity in whole blood, 48 hour: 0.804 nM
  EC50, SKNO-1 cytotoxicity in whole blood, donor 00201, 24 hour: 8.62 nM
  EC50, SKNO-1 cytotoxicity in whole blood, donor 00201, 48 hour: 0.704 nM
  EC50, SKNO-1 cytotoxicity in whole blood, donor 00263, 24 hour: 0.4 nM
  EC50, SKNO-1 cytotoxicity in whole blood, donor 00263, 48 hour: 0.58 nM
  EC50, SKNO-1 cytotoxicity in whole blood, donor 27050, 48 hour: 2.04 nM
  EC50, SKNO-1 cytotoxicity in whole blood, donor 27060, 24 hour: 2.5 nM
  EC50, SKNO-1 cytotoxicity in whole blood, donor 27060, 48 hour: 0.516 nM
  EC50, SKNO-1 cytotoxicity in whole blood, donor 27067, 24 hour: 1.11 nM
  EC50, SKNO-1 cytotoxicity in whole blood, donor 27067, 48 hour: 0.337 nM
  EC50, SKNO-1 cytotoxicity in whole blood, donor 32771, 24 hour: 1.94 nM
  EC50, SKNO-1 cytotoxicity in whole blood, donor 32782, 48 hour: 0.65 nM
[2]
  binding result: no binding (tested: 100 µg/mL)
[3]
  binding result: no binding (tested: 100 µg/mL)
[4]
  EC50 (read off the curve): ~1 µg/mL
[5]
  EC50 (read off the curve): ~1 µg/mL
[6]
  IC50 (read off the curve): ~200 nM
[7]
  IC50 (read off the curve): ~90 nM

B2: IAPB04 (antibody, human IgG4 S228P, kappa, F234A L235A, V domains shown)
VH: QVQLVQSGAEVKKPGSSVKVSCKASGGTFSSYAISWVRQAPGQGLEWMGGISAIFGTANYAQKFQGRVTITADESTSTAYMELSSLRSEDTAVYYCARHLHNGIHLDYWGQGTLVTVSS
VL: EIVLTQSPATLSLSPGERATLSCRASQSVSNFLAWYQQKPGQAPRLLIYGASNRATGIPARFSGSGSGTDFTLTISSLEPEDFAVYYCQQGKHWPWTFGQGTKVEIKR
notes: IgG4-PAA; also called IAPB4; phage hit B4
[8]
  Kd: 5.66 nM
[9]
  Kd: 5.66 nM
  koff: 0.00144 s⁻¹
  kon: 255000 M⁻¹ s⁻¹
[10]
  Kd: 4.73 nM
  koff: 0.0014 s⁻¹
  kon: 295000 M⁻¹ s⁻¹
[11]
  binding result: binds
[12]
  binding result: binds
[13]
  Fold Different from parent: 1 fold

B3: IAPB65 (antibody, human IgG4 S228P, kappa, F234A L235A, V domains shown)
VH: B2 VH with G103A
VL: B2 VL
notes: IgG4-PAA; whole chains; also called IAPB4-HC-G103A; IgG4-PAA, B4 mutant
[8]
  Kd: 10.4 nM
[10]
  Kd: 10.4 nM
  koff: 0.00341 s⁻¹
  kon: 329000 M⁻¹ s⁻¹
[13]
  Fold Different from parent: 2.2 fold
